Measured values: article PMC12087824

Legend:
[1] = target: human IL-2 receptor chain beta (IL-2Rβ, CD122) (human) (UniProt P14784); test: BLI; human IL-2Rβ immobilised; Neo-2/15 WT at 20–2.5 nM
[2] = target: human IL-2 receptor chain beta (IL-2Rβ, CD122) (human) (UniProt P14784)

Chain of human IL-2 receptor chain beta (IL-2Rβ, CD122) (human) (P14784 27-551): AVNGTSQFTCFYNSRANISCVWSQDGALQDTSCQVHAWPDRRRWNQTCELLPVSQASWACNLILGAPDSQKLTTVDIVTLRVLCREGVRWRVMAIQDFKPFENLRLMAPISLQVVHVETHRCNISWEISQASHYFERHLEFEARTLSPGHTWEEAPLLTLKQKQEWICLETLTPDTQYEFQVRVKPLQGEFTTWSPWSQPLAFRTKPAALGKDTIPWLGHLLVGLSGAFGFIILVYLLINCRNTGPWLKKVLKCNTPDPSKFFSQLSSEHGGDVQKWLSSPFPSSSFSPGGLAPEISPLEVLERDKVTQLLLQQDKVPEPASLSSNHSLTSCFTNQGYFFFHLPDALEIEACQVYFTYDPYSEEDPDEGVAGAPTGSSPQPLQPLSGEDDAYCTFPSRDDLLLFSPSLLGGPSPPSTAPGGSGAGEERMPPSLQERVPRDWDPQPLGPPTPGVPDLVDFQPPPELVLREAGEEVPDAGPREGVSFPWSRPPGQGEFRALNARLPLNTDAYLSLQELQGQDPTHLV

Q: For “neoleukin-2/15 (Neo-2/15) WT (designed binder)”, which Kd [1] is on record?
A: 2.5 nM

Q: What about the EC50 of STAT5 phosphorylation (pSTAT5) in purified splenic T cells of balb-c mice, ex vivo, serial dilutions [2] of the same substance?
A: 4.1 pM
